Laboratory results published in the supplement of paper PMC6757056.
± gives the standard deviation of the averaged measurements.

B1: library; a variant is named by its letters at N, in order (parent)
chain: GCUGUCACCGAGAAACUGUGAAGUAUAUCUUAAACCUGGGCACUUAAAAGAUAUAUGGAGUUAGUAGUGCAACCUGCUCGGUCUGAUGAGUCCNNNNNNGGACGAAACAGC

Experiments:
cyclic di-GMP [1] = variants of: B1; assay: normalized RNA/DNA level without ligand (relative to sTRSVctl = 100) (log10 (% of sTRSVctl)); HEK293T; ligand: cyclic di-GMP (c-di-GMP-II aptamer); higher = less ribozyme self-cleavage, higher mRNA level; conditions: reporter: mCherry (pCS4076), ligand present: no
Summary of the method: (§1)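 For each 6-well well, 4 µg of library plasmid encoding mCherry-linked ribozyme switches, or eGFP-linked ones in some ligand experiments, was transfected into HEK293T. Any ligand was added 1 h before transfection, and RNA was extracted with EDTA 72 h after it, then reverse-transcribed, amplified, barcoded and sequenced. RNA level was obtained by dividing RNA reads by DNA reads, normalizing to a spiked-in non-cleaving sequence or to the top sequences, then scaling and log-transforming. The top set was 25 sequences, scaling was ×100 with log10, and ≥100 DNA reads were required.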

cyclic di-GMP [2] = variants of: B1; assay: normalized RNA/DNA level with ligand (relative to sTRSVctl = 100) (log10 (% of sTRSVctl)); HEK293T; ligand: cyclic di-GMP (c-di-GMP-II aptamer); ligand concentration (+) RNA-Seq: 1 mM; higher = less ribozyme self-cleavage, higher mRNA level; conditions: reporter: mCherry (pCS4076), ligand present: yes
Summary of the method: as §1

Variant: GCUGUCACCGAGAAACUGUGAAGUAUAUCUUAAACCUGGGCACUUAAAAGAUAUAUGGAGUUAGUAGUGCAACCUGCUCGGUCUGAUGAGUCCGAAUUUGGACGAAACAGC
- normalized RNA/DNA level without ligand (log10) (cyclic di-GMP [1]): 1.652 ± 0.015
- normalized RNA/DNA level with ligand (log10) (cyclic di-GMP [2]): 1.85 ± 0.12

Variant: GCUGUCACCGAGAAACUGUGAAGUAUAUCUUAAACCUGGGCACUUAAAAGAUAUAUGGAGUUAGUAGUGCAACCUGCUCGGUCUGAUGAGUCCCUGGGUGGACGAAACAGC
- normalized RNA/DNA level without ligand (log10) (cyclic di-GMP [1]): 1.71 ± 0.033
- normalized RNA/DNA level with ligand (log10) (cyclic di-GMP [2]): 1.85 ± 0.13

Variant: GCUGUCACCGAGAAACUGUGAAGUAUAUCUUAAACCUGGGCACUUAAAAGAUAUAUGGAGUUAGUAGUGCAACCUGCUCGGUCUGAUGAGUCCACUUGGGGACGAAACAGC
- normalized RNA/DNA level without ligand (log10) (cyclic di-GMP [1]): 1.59 ± 0.048
- normalized RNA/DNA level with ligand (log10) (cyclic di-GMP [2]): 1.75 ± 0.13

Variant: GCUGUCACCGAGAAACUGUGAAGUAUAUCUUAAACCUGGGCACUUAAAAGAUAUAUGGAGUUAGUAGUGCAACCUGCUCGGUCUGAUGAGUCCUAACCUGGACGAAACAGC
- normalized RNA/DNA level without ligand (log10) (cyclic di-GMP [1]): 1.71 ± 0.031
- normalized RNA/DNA level with ligand (log10) (cyclic di-GMP [2]): 1.86 ± 0.072

Variant: GCUGUCACCGAGAAACUGUGAAGUAUAUCUUAAACCUGGGCACUUAAAAGAUAUAUGGAGUUAGUAGUGCAACCUGCUCGGUCUGAUGAGUCCUUCUACGGACGAAACAGC
- normalized RNA/DNA level without ligand (log10) (cyclic di-GMP [1]): 1.75 ± 0.025
- normalized RNA/DNA level with ligand (log10) (cyclic di-GMP [2]): 1.9 ± 0.035

Variant: GCUGUCACCGAGAAACUGUGAAGUAUAUCUUAAACCUGGGCACUUAAAAGAUAUAUGGAGUUAGUAGUGCAACCUGCUCGGUCUGAUGAGUCCAAGUCUGGACGAAACAGC
- normalized RNA/DNA level without ligand (log10) (cyclic di-GMP [1]): 1.68 ± 0.058
- normalized RNA/DNA level with ligand (log10) (cyclic di-GMP [2]): 1.8 ± 0.12

Variant: GCUGUCACCGAGAAACUGUGAAGUAUAUCUUAAACCUGGGCACUUAAAAGAUAUAUGGAGUUAGUAGUGCAACCUGCUCGGUCUGAUGAGUCCCCGUUCGGACGAAACAGC
- normalized RNA/DNA level without ligand (log10) (cyclic di-GMP [1]): 1.6 ± 0.047
- normalized RNA/DNA level with ligand (log10) (cyclic di-GMP [2]): 1.78 ± 0.056

Variant: GCUGUCACCGAGAAACUGUGAAGUAUAUCUUAAACCUGGGCACUUAAAAGAUAUAUGGAGUUAGUAGUGCAACCUGCUCGGUCUGAUGAGUCCCAAUUGGGACGAAACAGC
- normalized RNA/DNA level without ligand (log10) (cyclic di-GMP [1]): 1.733 ± 0.0033
- normalized RNA/DNA level with ligand (log10) (cyclic di-GMP [2]): 1.87 ± 0.065

Variant: GCUGUCACCGAGAAACUGUGAAGUAUAUCUUAAACCUGGGCACUUAAAAGAUAUAUGGAGUUAGUAGUGCAACCUGCUCGGUCUGAUGAGUCCGUCUUCGGACGAAACAGC
- normalized RNA/DNA level without ligand (log10) (cyclic di-GMP [1]): 1.7 ± 0.015
- normalized RNA/DNA level with ligand (log10) (cyclic di-GMP [2]): 1.87 ± 0.097

Variant: GCUGUCACCGAGAAACUGUGAAGUAUAUCUUAAACCUGGGCACUUAAAAGAUAUAUGGAGUUAGUAGUGCAACCUGCUCGGUCUGAUGAGUCCCAAAAGGGACGAAACAGC
- normalized RNA/DNA level without ligand (log10) (cyclic di-GMP [1]): 1.656 ± 0.0082
- normalized RNA/DNA level with ligand (log10) (cyclic di-GMP [2]): 1.77 ± 0.14

Variant: GCUGUCACCGAGAAACUGUGAAGUAUAUCUUAAACCUGGGCACUUAAAAGAUAUAUGGAGUUAGUAGUGCAACCUGCUCGGUCUGAUGAGUCCUUGCCAGGACGAAACAGC
- normalized RNA/DNA level without ligand (log10) (cyclic di-GMP [1]): 1.8 ± 0.08
- normalized RNA/DNA level with ligand (log10) (cyclic di-GMP [2]): 1.82 ± 0.13

Variant: GCUGUCACCGAGAAACUGUGAAGUAUAUCUUAAACCUGGGCACUUAAAAGAUAUAUGGAGUUAGUAGUGCAACCUGCUCGGUCUGAUGAGUCCCUCGGCGGACGAAACAGC
- normalized RNA/DNA level without ligand (log10) (cyclic di-GMP [1]): 1.797 ± 0.0073
- normalized RNA/DNA level with ligand (log10) (cyclic di-GMP [2]): 1.9 ± 0.088

Variant: GCUGUCACCGAGAAACUGUGAAGUAUAUCUUAAACCUGGGCACUUAAAAGAUAUAUGGAGUUAGUAGUGCAACCUGCUCGGUCUGAUGAGUCCAUGCACGGACGAAACAGC
- normalized RNA/DNA level without ligand (log10) (cyclic di-GMP [1]): 1.714 ± 0.0048
- normalized RNA/DNA level with ligand (log10) (cyclic di-GMP [2]): 1.86 ± 0.081

Variant: GCUGUCACCGAGAAACUGUGAAGUAUAUCUUAAACCUGGGCACUUAAAAGAUAUAUGGAGUUAGUAGUGCAACCUGCUCGGUCUGAUGAGUCCUGGAGCGGACGAAACAGC
- normalized RNA/DNA level without ligand (log10) (cyclic di-GMP [1]): 1.64 ± 0.062
- normalized RNA/DNA level with ligand (log10) (cyclic di-GMP [2]): 1.81 ± 0.15

Variant: GCUGUCACCGAGAAACUGUGAAGUAUAUCUUAAACCUGGGCACUUAAAAGAUAUAUGGAGUUAGUAGUGCAACCUGCUCGGUCUGAUGAGUCCAUGUAAGGACGAAACAGC
- normalized RNA/DNA level without ligand (log10) (cyclic di-GMP [1]): 1.54 ± 0.078
- normalized RNA/DNA level with ligand (log10) (cyclic di-GMP [2]): 1.68 ± 0.14

Variant: GCUGUCACCGAGAAACUGUGAAGUAUAUCUUAAACCUGGGCACUUAAAAGAUAUAUGGAGUUAGUAGUGCAACCUGCUCGGUCUGAUGAGUCCUGUUCAGGACGAAACAGC
- normalized RNA/DNA level without ligand (log10) (cyclic di-GMP [1]): 1.71 ± 0.066
- normalized RNA/DNA level with ligand (log10) (cyclic di-GMP [2]): 1.81 ± 0.12

Variant: GCUGUCACCGAGAAACUGUGAAGUAUAUCUUAAACCUGGGCACUUAAAAGAUAUAUGGAGUUAGUAGUGCAACCUGCUCGGUCUGAUGAGUCCUUCAGGGGACGAAACAGC
- normalized RNA/DNA level without ligand (log10) (cyclic di-GMP [1]): 1.82 ± 0.048
- normalized RNA/DNA level with ligand (log10) (cyclic di-GMP [2]): 1.88 ± 0.12

Variant: GCUGUCACCGAGAAACUGUGAAGUAUAUCUUAAACCUGGGCACUUAAAAGAUAUAUGGAGUUAGUAGUGCAACCUGCUCGGUCUGAUGAGUCCGGCUUGGGACGAAACAGC
- normalized RNA/DNA level without ligand (log10) (cyclic di-GMP [1]): 1.64 ± 0.062
- normalized RNA/DNA level with ligand (log10) (cyclic di-GMP [2]): 1.851 ± 0.0082

Variant: GCUGUCACCGAGAAACUGUGAAGUAUAUCUUAAACCUGGGCACUUAAAAGAUAUAUGGAGUUAGUAGUGCAACCUGCUCGGUCUGAUGAGUCCAGUACAGGACGAAACAGC
- normalized RNA/DNA level without ligand (log10) (cyclic di-GMP [1]): 1.51 ± 0.038
- normalized RNA/DNA level with ligand (log10) (cyclic di-GMP [2]): 1.67 ± 0.059

Variant: GCUGUCACCGAGAAACUGUGAAGUAUAUCUUAAACCUGGGCACUUAAAAGAUAUAUGGAGUUAGUAGUGCAACCUGCUCGGUCUGAUGAGUCCCACUUCGGACGAAACAGC
- normalized RNA/DNA level without ligand (log10) (cyclic di-GMP [1]): 1.71 ± 0.022
- normalized RNA/DNA level with ligand (log10) (cyclic di-GMP [2]): 1.83 ± 0.16

Variant: GCUGUCACCGAGAAACUGUGAAGUAUAUCUUAAACCUGGGCACUUAAAAGAUAUAUGGAGUUAGUAGUGCAACCUGCUCGGUCUGAUGAGUCCACCCAGGGACGAAACAGC
- normalized RNA/DNA level without ligand (log10) (cyclic di-GMP [1]): 1.777 ± 0.0092
- normalized RNA/DNA level with ligand (log10) (cyclic di-GMP [2]): 1.86 ± 0.06

Variant: GCUGUCACCGAGAAACUGUGAAGUAUAUCUUAAACCUGGGCACUUAAAAGAUAUAUGGAGUUAGUAGUGCAACCUGCUCGGUCUGAUGAGUCCCCUAUUGGACGAAACAGC
- normalized RNA/DNA level without ligand (log10) (cyclic di-GMP [1]): 1.56 ± 0.048
- normalized RNA/DNA level with ligand (log10) (cyclic di-GMP [2]): 1.71 ± 0.097

Variant: GCUGUCACCGAGAAACUGUGAAGUAUAUCUUAAACCUGGGCACUUAAAAGAUAUAUGGAGUUAGUAGUGCAACCUGCUCGGUCUGAUGAGUCCAAUCCAGGACGAAACAGC
- normalized RNA/DNA level without ligand (log10) (cyclic di-GMP [1]): 1.65 ± 0.025
- normalized RNA/DNA level with ligand (log10) (cyclic di-GMP [2]): 1.79 ± 0.088

Variant: GCUGUCACCGAGAAACUGUGAAGUAUAUCUUAAACCUGGGCACUUAAAAGAUAUAUGGAGUUAGUAGUGCAACCUGCUCGGUCUGAUGAGUCCAUCAUUGGACGAAACAGC
- normalized RNA/DNA level without ligand (log10) (cyclic di-GMP [1]): 1.695 ± 0.0081
- normalized RNA/DNA level with ligand (log10) (cyclic di-GMP [2]): 1.79 ± 0.12

Variant: GCUGUCACCGAGAAACUGUGAAGUAUAUCUUAAACCUGGGCACUUAAAAGAUAUAUGGAGUUAGUAGUGCAACCUGCUCGGUCUGAUGAGUCCAUUUGGGGACGAAACAGC
- normalized RNA/DNA level without ligand (log10) (cyclic di-GMP [1]): 1.56 ± 0.032
- normalized RNA/DNA level with ligand (log10) (cyclic di-GMP [2]): 1.77 ± 0.088

Variant: GCUGUCACCGAGAAACUGUGAAGUAUAUCUUAAACCUGGGCACUUAAAAGAUAUAUGGAGUUAGUAGUGCAACCUGCUCGGUCUGAUGAGUCCUUCAAGGGACGAAACAGC
- normalized RNA/DNA level without ligand (log10) (cyclic di-GMP [1]): 1.689 ± 0.0038
- normalized RNA/DNA level with ligand (log10) (cyclic di-GMP [2]): 1.82 ± 0.086
